Article PMC5131357, “Biochemical and Structural Analysis of a Novel Esterase from Caulobacter crescentus related to Penicillin-Binding Protein (PBP)” (Scientific Reports, 2016)

Columns and labels:
Assay in all cases: purified protein
[1] = tested on: CCCCCCCC(=O)Oc1ccc([N+](=O)[O-])cc1; conditions: 20 mM Tris-HCl pH 8.0, RT, 40 nM enzyme
[2] = tested on: O=C(Cc1cccs1)N[C@@H]1C(=O)N2C(C(=O)O)=C(/C=C/c3ccc([N+](=O)[O-])cc3[N+](=O)[O-])CS[C@H]12; conditions: 20 mM Tris-HCl pH 8.0, RT, 15 μM enzyme
[3] = tested on: CC(=O)Oc1ccc([N+](=O)[O-])cc1; conditions: 20 mM Tris-HCl pH 8.0, RT, 40 nM enzyme

CcEstA (Caulobacter vibrioides NA1000)
Km [1]: 43.4 ± 3.15 µM
kcat [1]: 4.03 ± 0.29 s⁻¹
Km [2]: 1348 µM
kcat [2]: 0.00807 s⁻¹
Km [3]: 51.9 ± 2.44 µM
kcat [3]: 15.2 ± 2.19 s⁻¹
